Measured values as given in patent publication US5719039A, “Enzyme-surfactant ion-pair complex catalyzed reactions in organic solvents” (University of Iowa Research Foundation, priority 1995, dated 1998).

How the values were obtained:
[1] = target: CT (Bos taurus, UniProt P00766); test: Transesterification with CT pre-inactivated by PMSF; assay type: biochemical; settings: PMSF 0.3 mM
Procedure: Values for kcat /Km were determined by nonlinear fit of the kinetic data and represent averages of triplicate measurements with standard deviations in each case of less than 5%. Initial rates of formation of N-acetyl-L-phenylalanine propyl ester were determined by gas chromatography (530-μm fused silica gum (Hewlett-Packard)). […] Saturation kinetics could not be determined for reactions with CT suspended in isooctane as the solubility limit for the substrate in this solvent is substantially below the Km of the enzyme.

[2] = Extraction of enzyme from aqueous solution into isooctane containing 2 mM AOT; assay type: physicochemical
[3] = source not stated; cited from earlier work
[4] = source not stated; cited from earlier work; remark: listed apart in the source
[5] = 1 mg/ml aqueous enzyme, pH 7.8, 2 mM CaCl2, 2 mM AOT in isooctane

| Molecule | reaction with pre-inactivated CT [1] | Extraction Yield (enzyme in organic phase) ([2]; 0.5 mg/ml aqueous papain, pH 7.8, CaCl2, MnCl2, KCl, 2 mM AOT in isooctane) [mg/mL] | pI [3] | pH of maximal activity [4] | Extraction Yield (enzyme in organic phase) [2, 5] [mg/mL] | extraction ([2]; 1 mg/ml aqueous solution, pH 7.8, 2 mM AOT in isooctane) [%] |
| --- | --- | --- | --- | --- | --- | --- |
| O=S(=O)(F)Cc1ccccc1 [phenylmethanesulfonyl fluoride] | No reaction was observed | – | – | – | – | – |
| papain: papain, pI of about 8.75 and maximal activity at pH 7.8 (protein, UniProt P00784 134-345, looked up) Papain: IPEYVDWRQKGAVTPVKNQGSCGSCWAFSAVVTIEGIIKIRTGNLNEYSEQELLDCDRRSYGCNGGYPWSALQLVAQYGIHYRNTYPYEGVQRYCRSREKGPYAAKTDGVRQVQPYNEGALLYSIANQPVSVVLEAAGKDFQLYRGGIFVGPCGNKVDHAVAAVGYGPNYILIKNSWGTGWGENGYIRIKRGTGNSYGVCGLYTSSFYPVKN | – | 0.35 | about 8.75 | 7.8 | – | – |
| Subtilisin BPN': subtilisin BPN' (from Bacillus amyloliquefaciens) (protein, UniProt P00782 108-382, looked up) Subtilisin BPN': AQSVPYGVSQIKAPALHSQGYTGSNVKVAVIDSGIDSSHPDLKVAGGASMVPSETNPFQDNNSHGTHVAGTVAALNNSIGVLGVAPSASLYAVKVLGADGSGQYSWIINGIEWAIANNMDVINMSLGGPSGSAALKAAVDKAVASGVVVVAAAGNEGTSGSSSTVGYPGKYPSVIAVGAVDSSNQRASFSSVGPELDVMAPGVSIQSTLPGNKYGAYNGTSMASPHVAGAAALILSKHPNWTNTQVRSSLENTTTKLGDSFYYGKGLINVQAAAQ | – | – | 9.4 | 7.8 | 0.4 | 40 |
| subtilisin Carlsberg: subtilisin Carlsberg (from Bacillus licheniformis) (protein, UniProt P00780 106-379, looked up) Subtilisin Carlsberg: AQTVPYGIPLIKADKVQAQGFKGANVKVAVLDTGIQASHPDLNVVGGASFVAGEAYNTDGNGHGTHVAGTVAALDNTTGVLGVAPSVSLYAVKVLNSSGSGSYSGIVSGIEWATTNGMDVINMSLGGASGSTAMKQAVDNAYAKGVVVVAAAGNSGSSGNTNTIGYPAKYDSVIAVGAVDSNSNRASFSSVGAELEVMAPGAGVYSTYPTNTYATLNGTSMASPHVAGAAALILSKHPNLSASQVRNRLSSTATYLGSSFYYGKGLINVEAAAQ | – | – | 8.5 | ~7.8 | 0.3 | – |
